Where a chain is given by its changes, count along the chain named.
B1: NOV3832 (antibody, human IgG1, lambda, V domains shown)
VH: EMQVLESGGGLVQPGGSLRLSCAASGFTFDNYAMSWVRQVPGKGLEWVSSISGSGGSTYYADSVKGQFTISRDNSKNTLYLQMNSLRAEDTAVYYCAKSSILSGGHARVYGIDVWGQGTTVTVSS
VL: QSALTQPPSVSVAPGQTARITCGGNNIGSQSVHWYQQKPGQAPILVVYDDTDRPSGIPARFSGSSSGSTATLTIGRVEAGDEADYYCQVWDSSSDHVVFGGGTKLTVLS
notes: Full human IgG1 (lambda) expressed in CHO cells
B2: NOV3833 (antibody, human IgG1, lambda, V domains shown)
VH: B1 VH with D30H
VL: B1 VL
notes: as for B1
B3: NOV2603 (antibody, human IgG1, kappa, V domains shown)
VH: QVQLVQSGAEVKKPGASVKVSCKASGYTFTSYYMHWVRQAPGQGLEWMGIISPSGGSTSYAQKFQGRVTMTRDTSTSTVYMELSSLRSEDTAVYYCARDWEGGDPYGYYYAFDYWGQGTLVTVSS
VL: not shown
notes: Full human IgG1 (kappa) expressed in CHO cells
B4: NOV3212 (antibody, human IgG1, kappa, V domains shown)
VH: B3 VH with Y32L, Y33E, S52E
VL: not shown
notes: as for B3
B5: NOV3831 (antibody, human IgG1, lambda, V domains shown)
VH: B1 VH with D30N
VL: B1 VL
notes: as for B1
B6: NOV3357 (antibody, human IgG1, kappa, V domains shown)
VH: EVQLLESGGGLVQPGGSLRLSCAASGFTFSPHAMSWVRQAPGKGLEWVSAISDSGGSTHYADSVKGRFTISRDNSKNTLYLQMNSLRAEDTAVYYCARDDDGWSGYDYWFDYWGQGTLVTVSS
VL: DIQMTQSPSSLSASVGDRVTITCRASQSISPYLNWYQQKPGKAPKLLIYAADSLQSGVPSRFSGSGSGTDFTLTISSLQPEDFATYYCQQSYKIPLTFGQGTKVEIKR
notes: as for B3
B7: NOV3540 (antibody, human IgG1, kappa, V domains shown)
VH: B6 VH with G102A
VL: B6 VL
notes: as for B3
B8: NOV3834 (antibody, human IgG1, kappa, V domains shown)
VH: QVQLVESGGGVVQPGRSLRLSCAASGFTFNRYGMHWVRQAPGKGLEWVAGIWHDGSHKYYADSLRGRFTISRDNAKNTLDLQLNRLRAEDTSVYYCVRQTNRGRLDDAFDIWGQGTMVTVSS
VL: DIQMTQSPSSLSAAVGDRVTISCRASQTISSYLNWYQQKPGEAPKLLIYAASTLQSGVPSRFGGSGSGTDFTLTISSLQPEDSATYYCQQNYDTLWTFGQGTKVEIKR
notes: as for B3
B9: NOV3836 (antibody, human IgG1, kappa, V domains shown)
VH: B8 VH with N30E, D54E
VL: B8 VL
B10: NOV3835 (antibody, human IgG1, kappa, V domains shown)
VH: B8 VH with N30D, D54E
VL: B8 VL

molecular target: HBsAg clinical mutation T126S (Hepatitis B virus); assay: sandwich ELISA, mutant HBsAg from cell supernatant captured on horse polyclonal anti-HBsAg, antibody titrated, absorbance 450 nm

| Binder | EC50 (read off the curve) |
| --- | --- |
| B1 | ~0.05 nM |

molecular target: HBsAg clinical mutation M133L (Hepatitis B virus); assay: as above

| Binder | EC50 (read off the curve) |
| --- | --- |
| B1 | ~0.05 nM |

molecular target: HBsAg clinical mutation T126S (Hepatitis B virus); assay: as above; remark: another data set of the same source

| Binder | EC50 (read off the curve) |
| --- | --- |
| B2 | ~0.04 nM |

molecular target: HBsAg clinical mutation M133L (Hepatitis B virus); assay: as above; remark: another data set of the same source

| Binder | EC50 (read off the curve) |
| --- | --- |
| B2 | ~0.05 nM |

molecular target: HBsAg clinical mutation T126S (Hepatitis B virus); assay: as above; remark: another data set of the same source

| Binder | EC50 (read off the curve) |
| --- | --- |
| B3 | ~0.06 nM |

molecular target: HBsAg clinical mutation M133L (Hepatitis B virus); assay: as above; remark: another data set of the same source

| Binder | EC50 (read off the curve) |
| --- | --- |
| B3 | ~0.07 nM |

molecular target: HBsAg clinical mutation G145R (Hepatitis B virus); assay: sandwich ELISA, captured mutant HBsAg from culture supernatant;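 note: Anti-HBsAg antibodies tested for binding to mutant HBsAg secreted by stably transfected cell lines, supernatant incubated 1 h on antibody-coated plates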
Method: (§1) The binding of anti-HBsAg antibodies to 4 well characterized vaccine and/or HBsAg clinical mutations of HBsAg (G145R, D144A, T126S, M133L) were analyzed by sandwich ELISA. […] Supernatant collected from HBsAg cell-culture derived clinical mutation stables (G145R, D144A, T126S, M133L) was allowed to bind antibody coated plates for 1 hour.

| Binder | IC50 |
| --- | --- |
| B3 | 0.33 nM |
| B4 | 0.033 nM |
| B5 | > 67 nM |
| B1 | > 67 nM |
| B2 | > 67 nM |
| B6 | 5.5 nM |
| B7 | 0.25 nM |

molecular target: HBsAg clinical mutation D144A (Hepatitis B virus); assay: as above
Method: as §1

| Binder | IC50 |
| --- | --- |
| B3 | 1.34 nM |
| B4 | 0.079 nM |
| B5 | 3.6 nM |
| B1 | 0.99 nM |
| B2 | 2.8 nM |
| B6 | 2.1 nM |
| B7 | 0.16 nM |

molecular target: HBsAg clinical mutation T126S (Hepatitis B virus); assay: as above
Method: as §1

| Binder | IC50 |
| --- | --- |
| B8 | 7.4 nM |
| B3 | 0.06 nM |
| B4 | 0.012 nM |
| B5 | 0.0093 nM |
| B1 | 0.034 nM |
| B2 | 0.025 nM |
| B6 | 0.22 nM |
| B7 | 0.063 nM |

molecular target: HBsAg clinical mutation M133L (Hepatitis B virus); assay: as above
Method: as §1

| Binder | IC50 |
| --- | --- |
| B8 | 9.2 nM |
| B3 | 0.072 nM |
| B4 | 0.012 nM |
| B5 | 0.0058 nM |
| B1 | 0.034 nM |
| B2 | 0.036 nM |
| B6 | 0.67 nM |
| B7 | 0.091 nM |

molecular target: HBsAg of HBV genotype D, serotype ayw (Hepatitis B virus); assay: cell-based or functional assay

| Binder | Virus neutralization EC50 |
| --- | --- |
| B9 | 0.017 nM |
| B10 | 0.72 nM |
| B8 | 0.24 nM |
| B3 | 0.14 nM |
| B4 | 0.11 nM |
| B5 | 0.026 nM |
| B1 | 0.26 nM |
| B2 | 0.27 nM |
| B6 | 0.056 nM |
| B7 | 0.085 nM |

molecular target: HBsAg clinical mutation D144A (Hepatitis B virus); assay: sandwich ELISA, mutant HBsAg from cell supernatant captured on horse polyclonal anti-HBsAg, antibody titrated, absorbance 450 nm

| Binder | EC50 (read off the curve) |
| --- | --- |
| B4 | ~0.1 nM |

molecular target: HBsAg clinical mutation T126S (Hepatitis B virus); assay: as above; remark: another data set of the same source

| Binder | EC50 (read off the curve) |
| --- | --- |
| B4 | ~0.02 nM |

molecular target: T1, HBsAg AY serotype (Hepatitis B virus); assay: SPR epitope binning; competitor (1st, saturating Ab): CR8087
T1 construct: also called HBsAg serotype AY
Method: (§2) Epitope binning of anti-HBsAg antibodies with the two major serotypes of HBsAg, AY and AD, was performed utilizing surface plasmon resonance (SPR) technology. […] Each pair of antibodies was tested for blocking one another's binding to their epitope on the antigen by subsequently applying one antibody as first (saturating) followed by the other as second (competing) antibody and vice versa. Saturating antibodies were applied at 500 nM for 120s. Competing antibodies utilized the same conditions but were supplemented with the first antibody at 500 nM to maintain saturation. Binding signals were corrected by subtracting the reference cell signal. Specific binding of the competing antibody in presence of the saturating antibody was calculated by subtracting a saturating antibody plus buffer reference signal. All signals were normalized to 100 RU of immobilized ligand. The specific binding signal obtained from the application as competing antibody was expressed as percentage of the binding signal obtained from the application of the same antibody as saturating (first) antibody, the signal of which was regarded 100% binding.

| Binder | binding of second antibody |
| --- | --- |
| B1 | 117 % of its binding as first antibody |
| B7 | 118 % of its binding as first antibody |

molecular target: T2, HBsAg AD serotype (Hepatitis B virus); assay: as above
T2 construct: also called HBsAg serotype AD
Method: as §2

| Binder | binding of second antibody |
| --- | --- |
| B1 | 223 % of its binding as first antibody |
| B7 | 254 % of its binding as first antibody |

molecular target: HBsAg of HBV genotype B (AF 121245) (Hepatitis B virus); assay: sandwich ELISA, captured HBsAg from culture supernatant
Method: (§3) The binding of anti-HBsAg antibodies to the 4 major genotypes (A-D) of HBV were analyzed by sandwich ELISA.

| Binder | IC50 |
| --- | --- |
| B8 | 1.2 nM |
| B3 | 1.5 nM |
| B4 | 0.045 nM |
| B5 | 0.015 nM |
| B1 | 0.02 nM |
| B2 | 0.12 nM |
| B6 | 0.017 nM |
| B7 | 0.059 nM |

molecular target: HBsAg of HBV genotype C (DQ087960) (Hepatitis B virus); assay: as above
Method: as §3

| Binder | IC50 |
| --- | --- |
| B8 | 16 nM |
| B3 | 3.6 nM |
| B4 | 0.068 nM |
| B5 | 0.031 nM |
| B1 | 0.015 nM |
| B2 | 0.12 nM |
| B6 | 0.016 nM |
| B7 | 0.1 nM |

molecular target: T3, HBsAg of HBV genotype A (AY934772) (Hepatitis B virus); assay: as above
T3 construct: captured from supernatant by horse polyclonal anti-HBsAg
Method: as §3

| Binder | IC50 |
| --- | --- |
| B8 | 2 nM |
| B3 | 2.3 nM |
| B4 | 0.23 nM |
| B5 | 0.69 nM |
| B1 | 0.05 nM |
| B2 | 0.56 nM |
| B6 | 0.03 nM |
| B7 | 0.1 nM |

molecular target: T1, HBsAg AY serotype; assay: SPR Biacore T200, HBsAg particles immobilized, antibody as analyte, 1:1 fit;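 note: Anti-HBsAg antibodies assessed for binding against both major HBsAg serotypes, AY and AD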
Method: (§4) Binding affinity interaction (KD) of the anti-HBsAg antibodies with the two major serotypes of HBsAg, AY and AD, was determined utilizing surface plasma resonance (SPR) technology.

| Binder | Kd |
| --- | --- |
| B8 | 5.3 nM |
| B3 | 3.1 nM |
| B4 | 0.6 nM |
| B5 | 0.59 nM |
| B1 | 0.4 nM |
| B2 | 0.26 nM |
| B6 | 0.11 nM |
| B7 | 0.25 nM |

molecular target: T2, HBsAg AD serotype; assay: as above
Method: as §4

| Binder | Kd |
| --- | --- |
| B8 | 40 nM |
| B3 | 15.5 nM |
| B4 | 1.1 nM |
| B5 | 0.67 nM |
| B1 | 0.22 nM |
| B2 | 0.33 nM |
| B6 | 0.18 nM |
| B7 | 0.39 nM |

molecular target: T1, HBsAg AY serotype; assay: SPR epitope binning; competitor (1st, saturating Ab): HBC34
Method: as §2

| Binder | binding of second antibody |
| --- | --- |
| B1 | 113 % of its binding as first antibody |
| B7 | 102 % of its binding as first antibody |

molecular target: T2, HBsAg AD serotype; assay: as above
Method: as §2

| Binder | binding of second antibody |
| --- | --- |
| B1 | 176 % of its binding as first antibody |
| B7 | 111 % of its binding as first antibody |

molecular target: HBsAg clinical mutation T126S (Hepatitis B virus); assay: sandwich ELISA, mutant HBsAg from cell supernatant captured on horse polyclonal anti-HBsAg, antibody titrated, absorbance 450 nm; remark: another data set of the same source

| Binder | EC50 (read off the curve) |
| --- | --- |
| B6 | ~0.1 nM |

molecular target: HBsAg clinical mutation M133L (Hepatitis B virus); assay: as above; remark: another data set of the same source

| Binder | EC50 (read off the curve) |
| --- | --- |
| B6 | ~0.1 nM |

molecular target: HBsAg clinical mutation T126S (Hepatitis B virus); assay: as above; remark: another data set of the same source

| Binder | EC50 (read off the curve) |
| --- | --- |
| B5 | ~0.02 nM |

molecular target: HBsAg clinical mutation M133L (Hepatitis B virus); assay: as above; remark: another data set of the same source

| Binder | EC50 (read off the curve) |
| --- | --- |
| B5 | ~0.02 nM |

molecular target: HBsAg clinical mutation G145R (Hepatitis B virus); assay: as above

| Binder | EC50 (read off the curve) |
| --- | --- |
| B7 | ~0.3 nM |

molecular target: HBsAg clinical mutation D144A (Hepatitis B virus); assay: as above; remark: another data set of the same source

| Binder | EC50 (read off the curve) |
| --- | --- |
| B7 | ~0.2 nM |

molecular target: HBsAg clinical mutation T126S (Hepatitis B virus); assay: as above; remark: another data set of the same source

| Binder | EC50 (read off the curve) |
| --- | --- |
| B7 | ~0.08 nM |

molecular target: HBsAg clinical mutation M133L (Hepatitis B virus); assay: as above; remark: another data set of the same source

| Binder | EC50 (read off the curve) |
| --- | --- |
| B7 | ~0.08 nM |

— US20240317840A1 (Novartis, published 2024)
